Molecular target: T1, N-terminal BRIL-fused wild-type human GPR20 (human, UniProt Q99678)
T1 construct: human GPR20, wild type, UniProt Q99678; codon-optimized gene in pFastBac1; Construct order: haemagglutinin signal peptide, Flag tag, BRIL, GPR20, HRV 3C protease site, 10x His; No cleavage with HRV 3C is described; BRIL is written as a carrier under tags, not as a part; also called WT GPR20; ligand-free GPR20; source: Trichuplusia ni Hi5 insect cells (baculovirus), co-expressed with DNGαi and …
T1 sequence (Q99678 whole entry, the tested form may be a part): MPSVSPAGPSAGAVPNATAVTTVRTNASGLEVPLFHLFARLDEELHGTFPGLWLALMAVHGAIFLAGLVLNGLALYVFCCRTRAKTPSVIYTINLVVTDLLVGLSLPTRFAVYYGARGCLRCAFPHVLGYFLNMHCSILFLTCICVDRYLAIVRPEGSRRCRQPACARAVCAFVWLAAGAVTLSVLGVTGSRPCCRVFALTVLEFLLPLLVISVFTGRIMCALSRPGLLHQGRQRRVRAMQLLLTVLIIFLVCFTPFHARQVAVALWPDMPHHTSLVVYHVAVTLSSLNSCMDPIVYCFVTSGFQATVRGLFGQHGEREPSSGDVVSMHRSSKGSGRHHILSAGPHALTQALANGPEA
Experiment: cryo-EM structure; GPR20-Gi-Fab046 complex, pair of Fab046 and GPR20; TALON eluate (GPR20-Gi complex) mixed with purified Fab046 1:1.5 for 6 h, SEC in 20 mM HEPES pH 7.5, 100 mM NaCl, LMNG/GDN/CHS, 100 μM TCEP; 3.22 Å
Settings: both partners purified

B1: Fab046, Fab fragment of the anti-GPR20 antibody Ab046 (Fab, V domains shown)
VH: QVQLQQSGAELAKPGSSVKISCKASGYTFTSYYISWIKQTTGQGLKYIGFINPGSGHTNYNEKFKGKATLTVDKSSSTAFMQLSSLTPDDSAIYYCARGAGGFLRIITKFDYWGQGVMVTVSS
VL: DTVLTQSPALAVSLGQRVTISCRASKSVSTYIHWYQQRSGQQPKLLIYSASNLESGVPSRFSGSGSGTDFTLTIDPVEPDDIANYYCQQINELPYTFGAGTKLELK
notes: modelled in the deposited structures PDB 8HS2 (VH + CH1) and PDB 8HSC (VH); modelled in the deposited structures PDB 8HS2 (intact light chain) and PDB 8HSC (VL); also called IgG046; source: Trichuplusia ni Hi5 insect cells (baculovirus, pFastBacDual), from the supernatant, purified (Ni-NTA, SEC)
binding result: binds

Reference: article PMC9971246, “The activation mechanism and antibody binding mode for orphan GPR20” (Cell Discovery, 2023)
